Laboratory results taken from the supplement of paper PMC10065799, “High-throughput profiling of sequence recognition by tyrosine kinases and SH2 domains using bacterial peptide display” (eLife, 2023).

What was measured:
AncSZ = experiment: phosphorylation enrichment, bacterial display (enrichment ratio); higher = better substrate or ligand; peptides without Tyr show the background
EPHB1 = EPHB1 (UniProt P54762); experiment: as above
EPHB2 = EPHB2 (UniProt P29323); experiment: as above
FGFR1 = FGFR1 (UniProt P11362); experiment: as above
FGFR3 = FGFR3 (UniProt P22607); experiment: as above
Fer (mouse) = experiment: as above
Fes = Fes (UniProt P07332); experiment: as above
Fyn = Fyn (UniProt P06241); experiment: as above
Hck = Hck (UniProt P08631); experiment: as above
Jak2 = Jak2 (UniProt O60674); experiment: as above
MERTK = MERTK (UniProt Q12866); experiment: as above
c-Abl (mouse) = experiment: as above
c-Src = experiment: as above
Grb2 SH2 = Grb2 SH2 (UniProt P62993); experiment: SH2 binding enrichment of the phosphorylated peptide, bacterial display (enrichment ratio); higher = better substrate or ligand; peptides without Tyr show the background
SHP2-C SH2 = experiment: as above
c-Src SH2 = experiment: as above
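Wherever SH2 binding enrichment of the phosphorylated peptide, bacterial display is given: peptide library displayed on the E. coli surface as eCPX fusions, selected cells deep-sequenced, score is each peptide's frequency after selection divided by its frequency in the input.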
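Wherever phosphorylation enrichment, bacterial display is given: 11-residue human phosphosite peptides and single-mutation variants displayed on the E. coli surface, counted by deep sequencing, each peptide's frequency after selection divided by its frequency in the unselected input library; frequency after pTyr selection over input frequency; kinase dosed for 20-30% of maximal phosphorylation in three min.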

MERTK, sequence (Q12866 whole entry, looked up): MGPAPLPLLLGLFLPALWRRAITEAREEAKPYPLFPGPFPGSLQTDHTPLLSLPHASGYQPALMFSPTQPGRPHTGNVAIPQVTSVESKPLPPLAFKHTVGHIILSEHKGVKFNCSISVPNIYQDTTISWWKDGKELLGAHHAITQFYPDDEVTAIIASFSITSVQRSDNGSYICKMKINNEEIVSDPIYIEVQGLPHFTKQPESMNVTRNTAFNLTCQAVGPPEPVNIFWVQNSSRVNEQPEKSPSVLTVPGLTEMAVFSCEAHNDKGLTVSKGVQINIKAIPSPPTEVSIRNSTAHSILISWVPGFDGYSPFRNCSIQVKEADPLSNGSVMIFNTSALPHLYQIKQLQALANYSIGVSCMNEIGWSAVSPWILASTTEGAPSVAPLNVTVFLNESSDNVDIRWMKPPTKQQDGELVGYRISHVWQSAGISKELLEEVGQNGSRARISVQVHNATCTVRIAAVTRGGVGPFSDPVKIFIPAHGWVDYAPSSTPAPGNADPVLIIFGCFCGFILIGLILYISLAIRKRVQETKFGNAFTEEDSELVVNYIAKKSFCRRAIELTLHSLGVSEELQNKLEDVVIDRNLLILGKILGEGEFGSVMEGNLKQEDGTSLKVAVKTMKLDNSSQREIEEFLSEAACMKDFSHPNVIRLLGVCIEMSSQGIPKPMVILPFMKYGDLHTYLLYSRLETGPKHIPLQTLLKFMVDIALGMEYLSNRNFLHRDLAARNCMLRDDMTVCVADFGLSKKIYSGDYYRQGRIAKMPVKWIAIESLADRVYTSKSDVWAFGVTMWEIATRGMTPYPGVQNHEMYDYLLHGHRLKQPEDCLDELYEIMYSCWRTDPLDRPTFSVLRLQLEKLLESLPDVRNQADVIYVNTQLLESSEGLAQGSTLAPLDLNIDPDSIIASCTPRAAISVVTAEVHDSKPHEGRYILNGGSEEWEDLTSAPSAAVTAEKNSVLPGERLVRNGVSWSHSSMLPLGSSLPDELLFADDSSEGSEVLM
FGFR3, sequence (P22607 whole entry, looked up): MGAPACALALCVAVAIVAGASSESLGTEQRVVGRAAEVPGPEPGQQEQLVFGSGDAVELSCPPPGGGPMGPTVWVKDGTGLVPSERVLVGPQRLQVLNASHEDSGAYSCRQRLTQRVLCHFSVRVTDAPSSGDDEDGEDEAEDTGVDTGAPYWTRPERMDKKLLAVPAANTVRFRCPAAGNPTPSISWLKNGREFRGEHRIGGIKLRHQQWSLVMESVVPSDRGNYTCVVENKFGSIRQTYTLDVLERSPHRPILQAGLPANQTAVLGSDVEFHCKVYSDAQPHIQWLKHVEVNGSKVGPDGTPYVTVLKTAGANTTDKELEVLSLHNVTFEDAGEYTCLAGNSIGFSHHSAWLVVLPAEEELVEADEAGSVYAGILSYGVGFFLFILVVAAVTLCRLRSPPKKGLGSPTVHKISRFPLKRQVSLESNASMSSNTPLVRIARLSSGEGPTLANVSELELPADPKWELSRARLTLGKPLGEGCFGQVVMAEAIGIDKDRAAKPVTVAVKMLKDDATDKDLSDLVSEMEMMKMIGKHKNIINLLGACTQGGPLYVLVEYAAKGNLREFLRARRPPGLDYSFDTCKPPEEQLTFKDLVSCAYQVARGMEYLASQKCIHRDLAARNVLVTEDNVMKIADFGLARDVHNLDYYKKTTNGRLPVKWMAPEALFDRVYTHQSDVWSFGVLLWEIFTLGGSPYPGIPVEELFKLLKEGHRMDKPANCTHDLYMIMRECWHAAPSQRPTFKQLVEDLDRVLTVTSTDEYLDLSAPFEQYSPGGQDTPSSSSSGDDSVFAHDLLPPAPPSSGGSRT
Grb2 SH2, sequence (P62993 whole entry, looked up): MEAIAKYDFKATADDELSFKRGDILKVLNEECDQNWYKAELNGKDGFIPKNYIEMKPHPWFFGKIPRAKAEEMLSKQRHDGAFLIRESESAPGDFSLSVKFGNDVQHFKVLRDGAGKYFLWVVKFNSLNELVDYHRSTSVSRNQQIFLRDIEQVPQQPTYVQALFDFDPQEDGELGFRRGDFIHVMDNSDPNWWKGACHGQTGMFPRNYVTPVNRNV
Fyn, sequence (P06241 whole entry, looked up): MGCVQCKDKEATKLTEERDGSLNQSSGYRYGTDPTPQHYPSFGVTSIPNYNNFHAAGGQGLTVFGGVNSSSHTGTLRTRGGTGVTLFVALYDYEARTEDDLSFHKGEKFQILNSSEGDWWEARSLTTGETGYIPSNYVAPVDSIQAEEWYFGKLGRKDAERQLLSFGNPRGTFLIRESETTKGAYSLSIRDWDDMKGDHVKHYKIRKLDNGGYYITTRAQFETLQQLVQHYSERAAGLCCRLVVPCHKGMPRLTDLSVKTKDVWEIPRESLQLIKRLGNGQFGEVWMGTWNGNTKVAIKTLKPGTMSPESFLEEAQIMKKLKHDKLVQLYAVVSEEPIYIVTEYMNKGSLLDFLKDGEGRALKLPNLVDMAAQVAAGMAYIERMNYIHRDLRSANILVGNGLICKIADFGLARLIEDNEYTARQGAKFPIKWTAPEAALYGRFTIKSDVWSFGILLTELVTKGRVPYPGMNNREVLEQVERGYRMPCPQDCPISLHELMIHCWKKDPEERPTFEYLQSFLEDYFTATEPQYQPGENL
Jak2, sequence (O60674 whole entry, looked up): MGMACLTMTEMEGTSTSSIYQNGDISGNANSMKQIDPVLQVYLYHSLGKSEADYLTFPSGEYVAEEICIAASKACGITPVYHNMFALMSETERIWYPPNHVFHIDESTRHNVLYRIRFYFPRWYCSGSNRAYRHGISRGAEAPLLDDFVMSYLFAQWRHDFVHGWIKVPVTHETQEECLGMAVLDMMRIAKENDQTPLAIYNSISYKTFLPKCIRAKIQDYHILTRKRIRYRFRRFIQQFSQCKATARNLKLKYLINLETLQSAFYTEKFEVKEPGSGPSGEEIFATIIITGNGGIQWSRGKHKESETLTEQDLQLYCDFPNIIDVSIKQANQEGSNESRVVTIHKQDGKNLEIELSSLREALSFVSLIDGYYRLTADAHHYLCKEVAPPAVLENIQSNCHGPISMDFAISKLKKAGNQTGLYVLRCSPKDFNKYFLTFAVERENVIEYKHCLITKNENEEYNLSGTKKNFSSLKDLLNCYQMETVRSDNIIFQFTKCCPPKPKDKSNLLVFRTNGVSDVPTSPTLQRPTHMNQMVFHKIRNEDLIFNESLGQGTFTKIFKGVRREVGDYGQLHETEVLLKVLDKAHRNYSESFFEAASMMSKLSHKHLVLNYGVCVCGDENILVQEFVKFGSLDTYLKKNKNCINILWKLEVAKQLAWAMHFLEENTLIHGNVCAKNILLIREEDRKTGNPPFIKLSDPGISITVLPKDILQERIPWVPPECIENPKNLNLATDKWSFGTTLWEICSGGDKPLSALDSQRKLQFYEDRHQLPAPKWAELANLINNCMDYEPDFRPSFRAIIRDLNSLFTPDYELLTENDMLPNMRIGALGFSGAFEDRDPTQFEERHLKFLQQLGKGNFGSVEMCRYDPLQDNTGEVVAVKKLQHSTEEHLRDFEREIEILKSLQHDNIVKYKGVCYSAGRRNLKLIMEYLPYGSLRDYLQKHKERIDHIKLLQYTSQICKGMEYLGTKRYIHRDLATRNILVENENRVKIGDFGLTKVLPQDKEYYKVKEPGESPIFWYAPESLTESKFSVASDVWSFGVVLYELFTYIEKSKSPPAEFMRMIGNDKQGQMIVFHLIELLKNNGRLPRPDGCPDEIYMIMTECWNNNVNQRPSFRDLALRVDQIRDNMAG
FGFR1, sequence (P11362 whole entry, looked up): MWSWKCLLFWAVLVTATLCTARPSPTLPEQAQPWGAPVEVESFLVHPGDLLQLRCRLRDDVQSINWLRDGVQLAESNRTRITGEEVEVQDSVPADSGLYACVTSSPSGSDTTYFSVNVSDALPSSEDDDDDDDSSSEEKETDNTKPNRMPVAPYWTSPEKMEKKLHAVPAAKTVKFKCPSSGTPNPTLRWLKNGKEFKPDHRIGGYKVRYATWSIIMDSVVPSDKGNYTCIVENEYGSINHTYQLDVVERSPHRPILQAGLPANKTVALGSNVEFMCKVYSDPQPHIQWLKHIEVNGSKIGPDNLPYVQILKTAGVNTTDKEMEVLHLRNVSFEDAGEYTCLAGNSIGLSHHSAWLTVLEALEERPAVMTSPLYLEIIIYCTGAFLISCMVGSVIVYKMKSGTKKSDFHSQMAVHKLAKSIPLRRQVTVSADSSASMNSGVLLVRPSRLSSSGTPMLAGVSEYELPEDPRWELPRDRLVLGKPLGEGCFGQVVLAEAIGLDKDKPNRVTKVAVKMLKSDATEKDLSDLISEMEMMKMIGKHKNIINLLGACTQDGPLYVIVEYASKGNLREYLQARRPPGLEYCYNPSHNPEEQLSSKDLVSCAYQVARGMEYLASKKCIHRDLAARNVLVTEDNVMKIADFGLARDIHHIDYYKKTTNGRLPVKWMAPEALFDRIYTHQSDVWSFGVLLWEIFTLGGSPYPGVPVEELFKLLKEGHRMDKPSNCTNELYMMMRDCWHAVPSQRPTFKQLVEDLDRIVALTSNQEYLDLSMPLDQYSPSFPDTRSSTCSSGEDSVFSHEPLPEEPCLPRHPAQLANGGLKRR
Hck, sequence (P08631 whole entry, looked up): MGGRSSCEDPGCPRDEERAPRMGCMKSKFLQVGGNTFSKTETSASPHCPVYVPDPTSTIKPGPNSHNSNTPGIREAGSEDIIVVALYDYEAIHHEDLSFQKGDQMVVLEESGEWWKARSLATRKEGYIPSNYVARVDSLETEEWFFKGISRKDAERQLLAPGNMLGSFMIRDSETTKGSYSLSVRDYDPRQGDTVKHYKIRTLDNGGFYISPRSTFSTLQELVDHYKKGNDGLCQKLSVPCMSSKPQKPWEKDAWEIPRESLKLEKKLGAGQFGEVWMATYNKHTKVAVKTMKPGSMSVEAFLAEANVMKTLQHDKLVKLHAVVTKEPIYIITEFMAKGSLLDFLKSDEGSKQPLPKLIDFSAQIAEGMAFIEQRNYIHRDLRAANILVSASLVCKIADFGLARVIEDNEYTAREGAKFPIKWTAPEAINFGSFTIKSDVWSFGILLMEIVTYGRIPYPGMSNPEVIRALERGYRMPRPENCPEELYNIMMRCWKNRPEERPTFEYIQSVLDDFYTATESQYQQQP

Sequence | phosphorylation enrichment (AncSZ) | phosphorylation enrichment (EPHB1) | phosphorylation enrichment (EPHB2) | phosphorylation enrichment (FGFR1) | phosphorylation enrichment (FGFR3) | phosphorylation enrichment (Fer (mouse)) | phosphorylation enrichment (Fes) | phosphorylation enrichment (Fyn) | phosphorylation enrichment (Hck) | phosphorylation enrichment (Jak2) | phosphorylation enrichment (MERTK) | phosphorylation enrichment (c-Abl (mouse)) | phosphorylation enrichment (c-Src) | SH2 binding enrichment (Grb2 SH2) | SH2 binding enrichment (SHP2-C SH2) | SH2 binding enrichment (c-Src SH2)
EFEGLYQEGGG [TMEM159_Y159] | 0.974 | 0.576 | 0.579 | 0.5 | 0.612 | 0.585 | 0.939 | 0.675 | 0.842 | 0.781 | 0.456 | 0.551 | 0.658 | 1.51 | 0.789 | 0.607
EFITRYIDSLK [PSMA7_Y110_A112D_YF] | 0.785 | 0.425 | 0.493 | 0.558 | 0.639 | 0.426 | 0.878 | 0.526 | 0.501 | 0.733 | 0.479 | 0.483 | 0.456 | 0.818 | 0.713 | 0.552
EFKKKYSDADI [CKAP5_Y1860_YF] | 0.576 | 0.303 | 0.565 | 0.413 | 0.476 | 0.331 | 0.683 | 0.459 | 0.408 | 0.606 | 0.472 | 0.464 | 0.334 | 0.883 | 0.616 | 0.487
EGDGVYTLNNK [HP_Y125_E130K] | 0.86 | 0.601 | 0.378 | 0.48 | 0.586 | 0.455 | 0.857 | 7.02 | 3.23 | 0.749 | 0.354 | 0.62 | 4.5 | 1.08 | 0.426 | 0.377
EHLNRYISDTF [TTLL10_Y446] | 0.737 | 0.44 | 0.473 | 0.428 | 0.567 | 0.434 | 0.641 | 0.434 | 0.51 | 0.535 | 0.393 | 0.655 | 0.42 | 0.9 | 0.652 | 0.462
EHVMPYAANKN [GRIN2A_Y1431] | 0.53 | 0.392 | 0.302 | 0.361 | 0.344 | 0.253 | 0.463 | 0.313 | 0.358 | 0.56 | 0.322 | 0.374 | 0.375 | 0.792 | 0.747 | 0.484
EKHGQYLIGHG [EPHB4_Y581_D576E] | 0.618 | 0.413 | 0.408 | 0.503 | 0.5 | 0.381 | 0.719 | 0.42 | 0.475 | 0.555 | 0.46 | 0.543 | 0.396 | 0.792 | 0.664 | 0.381
EKLQQYIAPGM [EPHB3_Y600] | 0.589 | 0.401 | 0.35 | 0.389 | 0.506 | 0.435 | 0.759 | 0.334 | 0.363 | 0.927 | 0.328 | 0.582 | 0.412 | 0.696 | 0.734 | 0.47
EKSREYHRLFE [PIK3R1_Y463_D464H_YF] | 0.656 | 0.407 | 0.483 | 0.526 | 0.538 | 0.409 | 0.737 | 0.358 | 0.429 | 0.51 | 0.427 | 0.486 | 0.442 | 0.912 | 0.753 | 4.61
ELANYYKLHHI [AK7_Y391] | 0.647 | 13.7 | 12.3 | 6.91 | 4.77 | 0.629 | 0.591 | 0.566 | 0.743 | 6.75 | 3.36 | 0.565 | 0.762 | 0.705 | 0.941 | 0.474
ELELLYPDRNS [NYX_Y284_L285P] | 1.17 | 0.556 | 0.544 | 0.776 | 0.759 | 0.463 | 1.27 | 0.492 | 0.534 | 1.03 | 0.433 | 0.799 | 0.489 | 0.831 | 1.01 | 0.513
ELPEKYSQNIY [PKP2_Y626] | 0.905 | 0.459 | 0.526 | 0.52 | 0.763 | 0.475 | 0.921 | 0.762 | 0.905 | 0.891 | 0.384 | 0.658 | 0.575 | 0.891 | 0.555 | 0.419
ELQGTYTSLQQ [KIF3C_Y574_R571Q] | 0.984 | 0.638 | 0.862 | 0.63 | 0.595 | 0.592 | 0.995 | 2.63 | 1.74 | 0.867 | 0.641 | 0.768 | 3.34 | 0.827 | 1.63 | 1.9
EMFNPCFGLFE [NEDD4L_Y679_Y679C_YF] | 1.27 | 0.71 | 0.687 | 0.667 | 0.798 | 0.811 | 1.45 | 0.543 | 0.562 | 1.41 | 0.554 | 1.29 | 0.725 | 1.08 | 0.792 | 0.716
EPFELYCEMGS [CBL_Y371_Q367P_YF] | 1.68 | 2.64 | 2.31 | 0.897 | 1.22 | 0.749 | 1.55 | 1.26 | 1.51 | 1.38 | 1.16 | 0.848 | 1.21 | 0.764 | 0.558 | 0.397
EPGNLYIAKVE [CNTN4_Y180_T176P] | 0.833 | 0.454 | 0.482 | 0.435 | 0.605 | 0.408 | 1.09 | 0.386 | 0.502 | 0.898 | 0.347 | 0.665 | 0.439 | 0.788 | 0.553 | 0.405
EPTPGYEVGQR [TSC2_Y1788] | 0.863 | 0.472 | 0.585 | 0.514 | 0.591 | 0.545 | 0.907 | 0.51 | 0.566 | 0.672 | 0.491 | 0.602 | 0.507 | 0.812 | 0.677 | 0.6

Sequence | phosphorylation enrichment (AncSZ) | phosphorylation enrichment (EPHB1) | phosphorylation enrichment (EPHB2) | phosphorylation enrichment (FGFR1) | phosphorylation enrichment (FGFR3) | phosphorylation enrichment (Fer (mouse)) | phosphorylation enrichment (Fes) | phosphorylation enrichment (Fyn) | phosphorylation enrichment (Hck) | phosphorylation enrichment (Jak2) | phosphorylation enrichment (MERTK) | phosphorylation enrichment (c-Abl (mouse)) | phosphorylation enrichment (c-Src) | SH2 binding enrichment (Grb2 SH2) | SH2 binding enrichment (SHP2-C SH2) | SH2 binding enrichment (c-Src SH2)
EQRRAYLEGTC [HLA-C_Y183_L180R] | 0.832 | 0.578 | 0.528 | 0.472 | 0.675 | 0.498 | 1.01 | 0.482 | 0.524 | 0.917 | 0.47 | 0.822 | 0.45 | 0.867 | 0.756 | 0.456
EREYKYGAHNH [OAT_Y50_Y55H] | 0.525 | 0.391 | 0.509 | 0.485 | 0.463 | 0.364 | 0.603 | 0.406 | 0.44 | 0.591 | 0.496 | 0.483 | 0.415 | 0.981 | 0.743 | 0.708
ERFAFYRDSPR [FOXE3_Y108] | 0.889 | 0.456 | 0.51 | 0.474 | 0.566 | 0.404 | 0.785 | 0.49 | 0.523 | 0.835 | 0.489 | 0.625 | 0.587 | 0.774 | 0.751 | 0.522
ERLWDCGMSSS [F8_Y1728_Y1728C] | 0.803 | 0.535 | 0.52 | 0.553 | 0.537 | 0.371 | 0.771 | 0.517 | 0.451 | 0.74 | 0.387 | 0.49 | 0.388 | 1.15 | 0.9 | 0.634
ETDSEYVKLAK [C7orf57_Y70] | 0.934 | 0.441 | 0.492 | 0.377 | 0.478 | 0.335 | 0.817 | 0.433 | 0.425 | 0.69 | 0.398 | 0.588 | 0.391 | 0.816 | 0.676 | 0.479
ETDTRYFDEEF [AKT1_Y437] | 1.32 | 0.633 | 0.714 | 0.567 | 0.81 | 0.563 | 1.29 | 0.544 | 0.665 | 1.37 | 0.527 | 0.875 | 0.679 | 0.902 | 0.916 | 0.775
ETKAFYPEEIS [HSPA1A_Y115] | 1.08 | 0.52 | 0.747 | 0.521 | 0.687 | 0.537 | 0.919 | 0.414 | 0.506 | 1.16 | 0.408 | 0.584 | 0.511 | 0.796 | 0.522 | 0.45
ETWHNYHKFDS [MATR3_Y243_S240W] | 0.7 | 0.799 | 0.605 | 0.942 | 0.732 | 0.395 | 0.755 | 0.468 | 0.448 | 0.71 | 0.458 | 0.48 | 0.439 | 0.865 | 0.791 | 2.09
EVASVYQSYQP [MAVS_Y92] | 0.864 | 0.54 | 0.622 | 0.518 | 0.568 | 2.7 | 0.802 | 9.7 | 7.42 | 0.661 | 0.569 | 1.14 | 7.09 | 0.753 | 0.8 | 0.609
EVTRLYGSVCD [TC2N_Y154_K151T] | 1.18 | 0.708 | 0.586 | 0.557 | 0.783 | 0.982 | 1.29 | 3.63 | 2.02 | 1.27 | 0.727 | 0.895 | 2.77 | 1.11 | 0.379 | 0.503
EWKQKYEESQS [MYH6_Y1462] | 1.02 | 0.525 | 0.616 | 0.499 | 0.65 | 0.44 | 1.08 | 0.49 | 0.528 | 1.04 | 0.357 | 0.706 | 0.395 | 0.897 | 0.672 | 0.545
FADIAYIYRHG [PAH_Y166_N167I] | 0.842 | 0.506 | 0.497 | 0.616 | 0.583 | 0.486 | 0.978 | 0.432 | 0.445 | 1.02 | 0.416 | 0.685 | 0.638 | 0.936 | 1.06 | 0.695
FADIAYNYHHG [PAH_Y166_R169H] | 0.643 | 0.387 | 0.385 | 0.433 | 0.525 | 0.443 | 0.803 | 0.469 | 0.494 | 0.567 | 0.462 | 0.415 | 0.638 | 0.751 | 0.654 | 0.477
FAKTQYPDIYA [CRX_Y63_V66I] | 0.518 | 0.355 | 0.427 | 0.449 | 0.668 | 0.359 | 0.693 | 0.519 | 0.709 | 0.563 | 0.396 | 0.526 | 0.572 | 0.881 | 1 | 0.533
FAREGYSALPQ [SARS2_Y52_YF] | 0.603 | 0.426 | 0.466 | 0.471 | 0.446 | 0.441 | 0.666 | 0.421 | 0.524 | 0.652 | 0.502 | 0.564 | 0.43 | 0.914 | 0.85 | 0.583
FASVEYQEALS [GALNS_Y461_A459V] | 1.01 | 0.621 | 0.588 | 0.484 | 0.631 | 0.47 | 0.997 | 0.615 | 0.471 | 0.876 | 0.416 | 0.738 | 0.442 | 0.917 | 0.723 | 0.576
